{"source": "paper PMC5484684", "about": "“Intracellular targeting of annexin A2 inhibits tumor cell adhesion, migration, and in vivo grafting” (Scientific Reports, 2017)", "binders": {"B1": {"name": "LGRFYAASG-displaying iPhage (peptide)", "peptide": "LGRFYAASG", "modifications": "also: phage-displayed", "notes": "peptide selected from the X4YX4 iPhage random peptide library in KS1767 cells; the alanine variants were cloned into the fUSE5 vector; source: recovered and amplified by E. coli infection, and purified"}}, "key": {"[1]": {"biological_target": "T1, human recombinant annexin A2 (human, UniProt P07355 1-339)", "T1 construct": "annexin A2, human, recombinant; also called ANXA2; source: bought: Amprox", "T1 sequence (P07355 whole entry)": "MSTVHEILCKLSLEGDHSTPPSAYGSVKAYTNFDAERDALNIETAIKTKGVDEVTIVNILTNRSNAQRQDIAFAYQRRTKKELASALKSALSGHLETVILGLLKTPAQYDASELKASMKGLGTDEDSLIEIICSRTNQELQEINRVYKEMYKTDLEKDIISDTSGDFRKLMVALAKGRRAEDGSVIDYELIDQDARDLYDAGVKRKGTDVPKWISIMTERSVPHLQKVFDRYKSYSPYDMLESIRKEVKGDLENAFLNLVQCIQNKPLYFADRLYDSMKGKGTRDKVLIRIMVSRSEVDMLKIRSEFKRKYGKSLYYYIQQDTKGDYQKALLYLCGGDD", "experiment": "phage binding assay; recombinant proteins in 96-well plates; iPhage input 10^9 TU/well; bound phage particles quantified by bacterial infection; TU normalised on an insertless iPhage", "details": "both partners purified"}, "[2]": {"biological_target": "T2, GST-fused recombinant annexin A2 (human, UniProt P07355 1-339)", "T2 construct": "May be the same protein as the annexin A2 bought from Amprox", "T2 sequence (P07355 whole entry, the tested form may be a part)": "as the sequence (P07355 whole entry) above", "experiment": "phage binding assay; recombinant proteins in 96-well plates; iPhage input 10^9 TU/well; bound phage particles quantified by bacterial infection; TU normalised on an insertless iPhage", "details": "both partners purified"}}, "note": "Ends that are not written are not given here.", "data": [{"binder": "B1", "values": [{"measurement": "binding result", "setting": "[1]", "result": "binds"}, {"measurement": "binding result", "setting": "[2]", "result": "binds"}]}]}
